Measurements: patent publication US20120225060A1 (APEXIGEN, published 2012)
Substitutions are numbered along the chain they refer to. Like-named read-outs stand apart in the source and are kept apart here. One block for each binder: values may come before it.

Tests used:
[1] = target: T1, recombinant human IL-6R-extracellular domain (ECD) (human, UniProt P08887 20-365); assay: direct ELISA on IL-6R
T1 construct: extracellular domain; also called IL-6R-ECD
T1 sequence (looked up): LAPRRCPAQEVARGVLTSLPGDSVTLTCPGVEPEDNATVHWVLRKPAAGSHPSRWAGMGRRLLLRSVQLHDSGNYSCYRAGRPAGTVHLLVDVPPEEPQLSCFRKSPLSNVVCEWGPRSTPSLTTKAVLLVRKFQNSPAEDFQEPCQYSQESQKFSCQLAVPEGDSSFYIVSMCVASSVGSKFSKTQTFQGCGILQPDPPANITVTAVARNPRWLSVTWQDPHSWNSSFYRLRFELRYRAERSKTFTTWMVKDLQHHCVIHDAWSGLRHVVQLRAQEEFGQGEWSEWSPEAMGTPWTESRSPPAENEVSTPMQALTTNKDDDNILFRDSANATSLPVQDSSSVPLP

[2] = target: T2, IL-6R on human myeloma U266B1 cells (human, UniProt P08887 20-468); assay: cell-based or functional assay
T2 sequence (looked up): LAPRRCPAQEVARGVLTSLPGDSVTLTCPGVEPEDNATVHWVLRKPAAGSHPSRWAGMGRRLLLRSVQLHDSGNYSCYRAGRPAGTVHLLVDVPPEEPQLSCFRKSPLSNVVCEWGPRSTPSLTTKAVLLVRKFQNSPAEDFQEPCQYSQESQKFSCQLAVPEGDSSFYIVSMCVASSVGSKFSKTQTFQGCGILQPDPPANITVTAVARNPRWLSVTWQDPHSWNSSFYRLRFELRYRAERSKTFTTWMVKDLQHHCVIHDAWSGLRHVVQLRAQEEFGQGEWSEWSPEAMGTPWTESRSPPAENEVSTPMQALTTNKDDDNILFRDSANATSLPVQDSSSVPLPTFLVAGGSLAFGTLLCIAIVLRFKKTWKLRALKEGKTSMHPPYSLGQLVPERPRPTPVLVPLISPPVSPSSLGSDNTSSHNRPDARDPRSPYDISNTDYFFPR

[3] = target: T2, IL-6R on human myeloma U266B1 cells; assay: FACS binding to IL-6R on U266B1 cells
[4] = target: T1, recombinant human IL-6R-extracellular …; assay: receptor-ligand ELISA, blocking of IL-6 binding to IL-6R
[5] = target: T1, recombinant human IL-6R-extracellular …; assay: SPR
[6] = target: T2, IL-6R on human myeloma U266B1 cells; assay: cell-based or functional assay; remark: listed apart in the source
[7] = target: T1, recombinant human IL-6R-extracellular …; assay: direct ELISA on IL-6R; remark: listed apart in the source
[8] = target: T2, IL-6R on human myeloma U266B1 cells; assay: cell-based or functional assay; remark: listed apart in the source
IL-6R on TF-1 cells = IL-6R on TF-1 cells (Homo sapiens); assay: cell-based or functional assay
[9] = target: T2, IL-6R on human myeloma U266B1 cells; assay: FACS binding to IL-6R on U266B1 cells; remark: listed apart in the source
[10] = target: T1, recombinant human IL-6R-extracellular …; assay: receptor-ligand ELISA, blocking of IL-6 binding to IL-6R; remark: listed apart in the source
[11] = target: T1, recombinant human IL-6R-extracellular …; assay: receptor-ligand ELISA: blocking of IL-6 binding to IL-6R
[12] = target: T2, IL-6R on human myeloma U266B1 cells; assay: FACS on U266B1 cells
[13] = target: T1, recombinant human IL-6R-extracellular …; assay: receptor-ligand ELISA, reference Tocilizumab

- EC50 [1]: 0.04 µg/mL
- TF-1 proliferation IC50 [2]: 0.03 µg/mL
- EC50 [3]: 0.0961 µg/mL
- IC50 [4]: 0.34 µg/mL
B1: clone 42 rabbit anti-IL-6R antibody (antibody, V domains shown)
VH: QSVEESGGRLVTPGTPLTLTCTVSGFSLSNYWMSWVRQAPGKGLEWIAFIGGGNTFYASWAKGRFTISKTSSTTVDLSMPSPTTEDTATYFCARGYGAPGYDLWGQGTLVTVSL
VL: AIVMTQTPSSKSVPVGDTVTINCQASESVYTNNRLSWYQQKPGQPPKLLIYYASTLASGVPSRFKGSGSGTQFTLTISDVVCDNAATYYCVGYKSSDGDGTAFGGGTEVVVK

- Kd [5]: 1.17 nM
- koff [5]: 0.000463 s⁻¹
- kon [5]: 393000 M⁻¹ s⁻¹
- EC50 [1]: 0.03 µg/mL
- EC50 [7]: ~0.03 µg/mL
- TF-1 proliferation IC50 [2]: 0.02 µg/mL
- TF-1 proliferation IC50 [8]: 0.154 µg/mL
- EC50 (read off the curve) [12]: ~0.2 µg/mL
- EC50 [3]: 0.0687 µg/mL
- EC50 [9]: 0.164 µg/mL
- IC50 [4]: 0.8 µg/mL
- IC50 [10]: 0.288 µg/mL
- IC50 (read off the curve) [11]: ~0.3 µg/mL
B7: clone 51 rabbit anti-IL-6R antibody (antibody, V domains shown)
VH: QSVEESGGRLVTPGTPLTLTCTASGFDISSYSLQWVRQSPGKGLEYIGFIRPDGSAHYATWAKGRFTISKTSSTTVDLKMTSLTTEDTATYFCARDDISSDYFPNLWGPGTLVTVSS
VL: QVLTQTPSPVSAAVGGTVTISCQASESVYNKNNLAWYQQKPGQPPKLLIYDASDLASGVSSRFKGSGSGTQFTLTISDLECADAATYYCAGGGSGNVYDFGGGTEVVVK

- Kd [5]: 1.29 nM
- koff [5]: 0.0004 s⁻¹
- kon [5]: 311000 M⁻¹ s⁻¹
- EC50 [7]: 0.0169 µg/mL
- TF-1 proliferation IC50 [8]: 1.06 µg/mL
- EC50 [9]: 0.356 µg/mL
- IC50 [10]: 0.26 µg/mL
B8: humanized clone #51 anti-IL-6R antibody (antibody, human IgG1, kappa, V domains shown)
VH: EVQLVESGGGLVQPGGSLRLSCAASGFDISSYSLQWVRQSPGKGLEYIGFIRPDGSAHYATWAKGRFTISKDSSKNTVYLQMNSLRAEDTAVYFCARDDISSDYFPNLWGPGTLVTVSS
VL: DIQMTQSPSTLSASVGDRVTISCQASESVYNKNNLAWYQQKPGKPPKLLIYDASDLASGVPSRFSGSGSGTQFTLTISSLQPDDFATYYCAGGGSGNVYDFGGGTKVEIKR
notes: Humanized VH cloned into human IgG1 CH vector, humanized VK into human CK vector; also called Humanized 51; humanized 51

- EC50 [1]: 0.02 µg/mL
- TF-1 proliferation IC50 [2]: 0.02 µg/mL
- EC50 [3]: 0.0573 µg/mL
- IC50 [4]: 1.36 µg/mL
B9: clone 40 rabbit anti-IL-6R antibody (antibody, V domains shown)
VH: QSLEESGGRLVSPGGSLTLTCTVSGVDLNTYAMGWVRQAPGKGLECIGVILGSGTTYYANWAKGRFTISKTSSTTVDLKMTNLTAADTATYFCAGDRYGSLEEVITPYFDLWGPGILVTVSS
VL: DVVMTQTPASVEAAVGGTVTIKCQASQNIYNNLAWYQQKPAQPPKLLIYSASTLESGVPSRFKGSGSGTGYTLTISDLECADAATYYCQSAYYTSYIDHNVFGGGTEVVVE

- Kd [5]: 0.526 nM
- koff [5]: 0.00031 s⁻¹
- kon [5]: 589000 M⁻¹ s⁻¹
- EC50 [7]: 0.0216 µg/mL
- TF-1 proliferation IC50 [8]: 0.181 µg/mL
- EC50 [9]: 0.145 µg/mL
- fold potency against Tocilizumab in ligand-receptor binding assays [13]: 6 fold
- IC50 [10]: 0.39 µg/mL
- IC50 (read off the curve) [11]: ~0.2 µg/mL
B10: humanized clone #36 anti-IL-6R antibody (antibody, human IgG1, kappa, V domains shown)
VH: EVQLVESGGGLVQPGGSLRLSCAVSGFSLSSYYMSWVRQAPGKGLEWIGITTTSTNTFYASWAKGRFTISKDSSKNTVYLQMNSPRAEDTAVYFCARYGGNSAYYAFSLWGQGTLVTVSS
VL: DIQMTQSPSSLSASVGDRVTISCQSSQSVYNNNYLAWFQQKPGKPPKLLIYGASNLASGVPSRFSGSGSGTQFTLTISSLQPEDVATYYCQGYYNGVIFVFGGGTKVEIKR
notes: Humanized VH cloned into human IgG1 CH vector, humanized VK into human CK vector; also called Humanized 36; humanized 36

The remaining lines, values behind:

B2: clone 5 rabbit anti-IL-6R antibody (antibody, V domains shown)
VH: QSLEESGGRLVTPGTPLTLTCTVSGIDLSRYWMSWVRQAPGKGLEWIGMISGGNTWYASWAKGRFTISKTSTTVDLKITSPTTEDTATYFCARGIDTGIATTFNLWGPGTLVTVSS
VL: AQVLTQTPSSVSAAVGGTVTISCQSSQSVYNNNRLSWFQQKPGQPPKLLIYYASTLASGVPSRFKGSGSGTQFTLTISDLECDDAATYYCQGYYSGVINVFGGGTEVVVK
- Kd [5]: 0.523 nM
- koff [5]: 0.000279 s⁻¹
- kon [5]: 533000 M⁻¹ s⁻¹
- EC50 [1]: 0.04 µg/mL
- TF-1 proliferation IC50 [2]: 0.03 µg/mL
- EC50 [3]: 0.0261 µg/mL
- IC50 [4]: 0.38 µg/mL

B3: clone 23 rabbit anti-IL-6R antibody (antibody, V domains shown)
VH: B2 VH
VL: B2 VL with A13T, S28N, A53T, A57P
- EC50 [1]: 0.07 µg/mL
- TF-1 proliferation IC50 [2]: 0.07 µg/mL
- EC50 [3]: 0.0263 µg/mL
- IC50 [4]: 0.38 µg/mL

B4: clone 37 rabbit anti-IL-6R antibody (antibody, V domains shown)
VH: B2 VH with K69G, T79I, E84A
VL: B2 VL with N31S, A53T
- EC50 [1]: 0.05 µg/mL
- TF-1 proliferation IC50 [2]: 0.09 µg/mL
- EC50 [3]: 0.0331 µg/mL
- IC50 [4]: 0.39 µg/mL

B5: clone 21 rabbit anti-IL-6R antibody (antibody, V domains shown)
VH: QSVEESGGRLVTPGTPLTLTCTVSGIDLSNYYMSWVRQAPGKGLEWIGISSTTSNTFYASWAKGRFTISKTSATVDLKITSPTTEDTATYFCARYGGNSAYYAFSLWGQGTLVTVSS
VL: AVVLTQTPSPVSAAVGGTVTINCQSSQSVYNNNYLAWYQQKPGQPPKLLIYGASNLASGVPSRFKGSGSGTQFTLTISEVQCDDAATYYCQGYYNGVIFVFGGGTEVVVK
- EC50 [1]: 0.04 µg/mL
- TF-1 proliferation IC50 [2]: 0.11 µg/mL
- EC50 [3]: 0.0326 µg/mL
- IC50 [4]: 0.47 µg/mL

B6: clone 36 rabbit anti-IL-6R antibody (antibody, V domains shown)
VH: B5 VH with I26F, D27S, N30S, S50T, S51T, T53S, S54T, T84I
VL: QVLTQTASSVSAAVGGTVTISCQSSQSVYNNNYLAWFQQKPGQPPKLLIYGASNLASGVPSRFKGSGSGTQFTLTISDLECDNAATYYCQGYYNGVIFVFGGGTEVVVK
- Kd [5]: 0.635 nM
- koff [5]: 0.000342 s⁻¹
- kon [5]: 538000 M⁻¹ s⁻¹
- inhibition of STAT3 phosphorylation, fold as compared to tocilizumab (hPM-1) [6]: > 10 fold
- EC50 [1]: 0.02 µg/mL
- EC50 [7]: 0.0595 µg/mL
- TF-1 proliferation IC50 [2]: 0.04 µg/mL
- TF-1 proliferation IC50 [8]: 0.163 µg/mL
- IC50 (read off the curve), IL-6 mediated TF-1 proliferation (IL-6R on TF-1 cells): ~0.1 µg/mL
- EC50 [3]: 0.0203 µg/mL
- EC50 [9]: 0.0776 µg/mL
- IC50 [4]: 0.23 µg/mL
- IC50 [10]: 0.235 µg/mL
- IC50 (read off the curve) [11]: ~0.2 µg/mL
